Results published in IntAct's records for PubMed 31515488.

B1: Progranulin (Homo sapiens), P28799 (parent)
chain: MWTLVSWVALTAGLVAGTRCPDGQFCPVACCLDPGGASYSCCRPLLDKWPTTLSRHLGGPCQVDAHCSAGHSCIFTVSGTSSCCPFPEAVACGDGHHCCPRGFHCSADGRSCFQRSGNNSVGAIQCPDSQFECPDFSTCCVMVDGSWGCCPMPQASCCEDRVHCCPHGAFCDLVHTRCITPTGTHPLAKKLPAQRTNRAVALSSSVMCPDARSRCPDGSTCCELPSGKYGCCPMPNATCCSDHLHCCPQDTVCDLIQSKCLSKENATTDLLTKLPAHTVGDVKCDMEVSCPDGYTCCRLQSGAWGCCPFTQAVCCEDHIHCCPAGFTCDTQKGTCEQGPHQVPWMEKAPAHLSLPDPQALKRDVPCDNVSSCPSSDTCCQLTSGEWGCCPIPEAVCCSDHQHCCPQGYTCVAEGQCQRGSEIVAGLEKMPARRASLSHPRDIGCDQHTSCPVGQTCCPSLGGSWACCQLPHAVCCEDRQHCCPAGYTCNVKARSCEKEVVSAQPATFLARSPHVGVKDVECGEGHFCHDNQTCCRDNRQGWACCPYRQGVCCADRRHCCPAGFRCAARGTKCLRREAPRWDAPLRDPALRQLL
B2: E3 ubiquitin-protein ligase SH3RF2 (Homo sapiens), Q8TEC5 (parent)
chain: MDDLTLLDLLECPVCFEKLDVTAKVLPCQHTFCKPCLQRVFKAHKELRCPECRTPVFSNIEALPANLLLVRLLDGVRSGQSSGRGGSFRRPGTMTLQDGRKSRTNPRRLQASPFRLVPNVRIHMDGVPRAKALCNYRGQNPGDLRFNKGDIILLRRQLDENWYQGEINGISGNFPASSVEVIKQLPQPPPLCRALYNFDLRGKDKSENQDCLTFLKDDIITVISRVDENWAEGKLGDKVGIFPILFVEPNLTARHLLEKNKGRQSSRTKNLSLVSSSSRGNTSTLRRGPGSRRKVPGQFSITTALNTLNRMVHSPSGRHMVEISTPVLISSSNPSVITQPMEKADVPSSCVGQVSTYHPAPVSPGHSTAVVSLPGSQQHLSANMFVALHSYSAHGPDELDLQKGEGVRVLGKCQDGWLRGVSLVTGRVGIFPNNYVIPIFRKTSSFPDSRSPGLYTTWTLSTSSVSSQGSISEGDPRQSRPFKSVFVPTAIVNPVRSTAGPGTLGQGSLRKGRSSMRKNGSLQRPLQSGIPTLVVGSLRRSPTMVLRPQQFQFYQPQGIPSSPSAVVVEMGSKPALTGEPALTCISRGSEAWIHSAASSLIMEDKEIPIKSEPLPKPPASAPPSILVKPENSRNGIEKQVKTVRFQNYSPPPTKHYTSHPTSGKPEQPATLKASQPEAASLGPEMTVLFAHRSGCHSGQQTDLRRKSALGKATTLVSTASGTQTVFPSK
B3: 2'-5'-oligoadenylate synthase 1 (Homo sapiens), P00973 (parent)
chain: MMDLRNTPAKSLDKFIEDYLLPDTCFRMQINHAIDIICGFLKERCFRGSSYPVCVSKVVKGGSSGKGTTLRGRSDADLVVFLSPLTTFQDQLNRRGEFIQEIRRQLEACQRERAFSVKFEVQAPRWGNPRALSFVLSSLQLGEGVEFDVLPAFDALGQLTGGYKPNPQIYVKLIEECTDLQKEGEFSTCFTELQRDFLKQRPTKLKSLIRLVKHWYQNCKKKLGKLPPQYALELLTVYAWERGSMKTHFNTAQGFRTVLELVINYQQLCIYWTKYYDFKNPIIEKYLRRQLTKPRPVILDPADPTGNLGGGDPKGWRQLAQEAEAWLNYPCFKNWDGSPVSSWILLAESNSADDETDDPRRYQKYGYIGTHEYPHFSHRPSTLQAASTPQAEEDWTCTIL
partner: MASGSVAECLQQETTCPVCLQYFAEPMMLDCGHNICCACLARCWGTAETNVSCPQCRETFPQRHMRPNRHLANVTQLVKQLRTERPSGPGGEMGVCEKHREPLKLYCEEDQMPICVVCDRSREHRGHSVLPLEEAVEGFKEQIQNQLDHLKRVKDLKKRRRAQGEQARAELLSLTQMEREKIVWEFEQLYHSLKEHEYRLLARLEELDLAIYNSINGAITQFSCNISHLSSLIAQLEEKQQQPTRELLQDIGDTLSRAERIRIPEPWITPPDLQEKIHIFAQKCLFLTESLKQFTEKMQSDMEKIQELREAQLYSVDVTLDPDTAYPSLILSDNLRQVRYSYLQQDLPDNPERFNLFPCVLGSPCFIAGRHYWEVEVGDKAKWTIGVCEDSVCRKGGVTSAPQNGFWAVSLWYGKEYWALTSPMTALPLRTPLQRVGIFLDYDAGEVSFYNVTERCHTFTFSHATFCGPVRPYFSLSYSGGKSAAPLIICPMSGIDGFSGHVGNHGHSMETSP
B4: G1/S-specific cyclin-D3 (Homo sapiens), P30281 (parent)
chain: MELLCCEGTRHAPRAGPDPRLLGDQRVLQSLLRLEERYVPRASYFQCVQREIKPHMRKMLAYWMLEVCEEQRCEEEVFPLAMNYLDRYLSCVPTRKAQLQLLGAVCMLLASKLRETTPLTIEKLCIYTDHAVSPRQLRDWEVLVLGKLKWDLAAVIAHDFLAFILHRLSLPRDRQALVKKHAQTFLALCATDYTFAMYPPSMIATGSIGAAVQGLGACSMSGDELTELLAGITGTEVDCLRACQEQIEAALRESLREASQTSSSPAPKAPRGSSSQGPSQTSTPTDVTAIHL

Variants of: B1
Settings: with hxa1_human HOXA1, P49639
hxa1_human HOXA1, P49639, sequence (P49639 whole entry): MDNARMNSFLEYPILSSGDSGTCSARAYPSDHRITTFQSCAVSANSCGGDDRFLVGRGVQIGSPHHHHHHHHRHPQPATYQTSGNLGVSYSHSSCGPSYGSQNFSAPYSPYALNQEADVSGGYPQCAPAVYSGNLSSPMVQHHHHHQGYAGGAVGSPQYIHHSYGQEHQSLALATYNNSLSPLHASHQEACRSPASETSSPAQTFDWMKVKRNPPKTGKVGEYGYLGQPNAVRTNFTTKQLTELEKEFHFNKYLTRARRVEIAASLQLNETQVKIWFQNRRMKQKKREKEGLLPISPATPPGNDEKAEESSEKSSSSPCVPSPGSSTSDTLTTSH

Variant	effect of a mutation on the interaction
MWTLVSWVALTAGLVAGTRCPDGQFCPVACCLDPGGASYSCCRPLLDKWPTTLSRHLGGPCQVDAHCSAGHSCIFTVSGTSSCCPFPEAVACGDGHHCCPRGFHCSADGRSCFQRSGNNSVGAIQCPDSQFECPDFSTCCVMVDGSWGCCPMPQASCCEDRVHCCPHGAFCDLVHTRCITPTGTHPLAKKLPAQRTNRAVALSSSVMCPDARSRCPDGSTCCELPSGKYGCCPMPNATCCSDHLHCCPQDTVCDLIQSKCLSKENATTDLLTKLPAHTVGDVKCDMEVSCPDGYTCCRLQSGAWGCCPFTQAVCCEDHIHCCPAGFTCDTQKGTCEQGPHQVPWMEKAPAHLSLPDPQALKRDVPCDNVSSCPSSDTCCQLTSGEWGCCPIPEAVCCSDHQHCCPQGYTCVAEGQCQRGSEIVAGLEKMPARRASLSHPRDIGCDQHTSCPVGQTCCPSLGGSWACCQLPHAVCCEDRQHCCPAGYTCNVKARSCEKEVVSAQPATFLARSPHVGVKDVECGEGHFCHDNQTCCRENRQGWACCPYRQGVCCADRRHCCPAGFRCAARGTKCLRREAPRWDAPLRDPALRQLL [D536E]	with no effect

Variants of: B1
Settings: with glrx3_human GLRX3, O76003
glrx3_human GLRX3, O76003, sequence (O76003 whole entry): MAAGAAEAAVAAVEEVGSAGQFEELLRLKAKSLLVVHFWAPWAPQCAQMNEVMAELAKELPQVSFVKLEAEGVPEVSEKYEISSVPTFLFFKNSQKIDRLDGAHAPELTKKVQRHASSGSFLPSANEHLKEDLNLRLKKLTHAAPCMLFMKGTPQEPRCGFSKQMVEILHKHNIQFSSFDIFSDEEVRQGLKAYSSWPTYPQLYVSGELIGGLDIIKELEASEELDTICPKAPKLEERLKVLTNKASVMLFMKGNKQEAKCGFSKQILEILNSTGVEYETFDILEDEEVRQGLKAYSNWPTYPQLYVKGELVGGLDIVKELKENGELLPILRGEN

Variant	effect of a mutation on the interaction
MWTLVSWVALTAGLVAGTRCPDGQFCPVACCLDPGGASYSCCRPLLDKWPTTLSRHLGGPCQVDAHCSAGHSCIFTVSGTSSCCPFPEAVACGDGHHCCPRGFHCSADGRSCFQRSGNNSVGAIQCPDSQFECPDFSTCCVMVDGSWGCCPMPQASCCEDRVHCCPHGAFCDLVHTRCITPTGTHPLAKKLPAQRTNRAVALSSSVMCPDARSRCPDGSTCCELPSGKYGCCPMPNATCCSDHLHCCPQDTVCDLIQSKCLSKENATTDLLTKLPAHTVGDVKCDMEVSCPDGYTCCRLQSGAWGCCPFTQAVCCEDHIHCCPAGFTCDTQKGTCEQGPHQVPWMEKAPAHLSLPDPQALKRDVPCDNVSSCPSSDTCCQLTSGEWGCCPIPEAVCCSDHQHCCPQGYTCVAEGQCQRGSEIVAGLEKMPARRASLSHPRDIGCDQHTSCPVGQTCCPSLGGSWACCQLPHAVCCEDRQHCCPAGYTCNVKARSCEKEVVSAQPATFLARSPHVGVKDVECGEGHFCHDNQTCCRENRQGWACCPYRQGVCCADRRHCCPAGFRCAARGTKCLRREAPRWDAPLRDPALRQLL [D536E]	with no effect

Variants of: B2
Settings: with rbpms_human RBPMS

Variant	effect of a mutation on the interaction
V687I	with no effect

Variants of: B2
Settings: with amol2_human AMOTL2, Q9Y2J4
amol2_human AMOTL2, Q9Y2J4, sequence (Q9Y2J4 whole entry): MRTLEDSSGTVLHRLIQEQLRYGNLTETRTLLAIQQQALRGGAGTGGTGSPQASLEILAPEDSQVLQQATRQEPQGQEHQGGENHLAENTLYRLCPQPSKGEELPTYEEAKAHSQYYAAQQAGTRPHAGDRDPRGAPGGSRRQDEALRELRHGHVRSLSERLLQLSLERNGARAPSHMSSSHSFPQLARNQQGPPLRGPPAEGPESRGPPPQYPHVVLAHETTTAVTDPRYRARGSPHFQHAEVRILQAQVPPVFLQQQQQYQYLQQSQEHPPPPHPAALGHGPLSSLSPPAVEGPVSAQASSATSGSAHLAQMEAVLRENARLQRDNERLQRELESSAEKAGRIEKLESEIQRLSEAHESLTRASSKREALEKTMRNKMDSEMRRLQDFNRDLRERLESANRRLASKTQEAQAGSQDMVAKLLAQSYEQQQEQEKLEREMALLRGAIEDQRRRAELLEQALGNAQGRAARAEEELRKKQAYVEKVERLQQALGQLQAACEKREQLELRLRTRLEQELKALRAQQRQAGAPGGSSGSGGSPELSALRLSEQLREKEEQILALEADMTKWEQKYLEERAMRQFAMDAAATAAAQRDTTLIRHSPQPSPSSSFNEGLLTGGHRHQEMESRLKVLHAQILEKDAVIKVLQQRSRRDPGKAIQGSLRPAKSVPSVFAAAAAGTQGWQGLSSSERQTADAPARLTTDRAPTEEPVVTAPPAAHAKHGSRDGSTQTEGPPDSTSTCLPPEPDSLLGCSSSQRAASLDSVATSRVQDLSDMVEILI

Variant	effect of a mutation on the interaction
V687I	with no effect

Variants of: B2
Settings: with mtus2_human MTUS2, Q5JR59
mtus2_human MTUS2, Q5JR59, sequence (Q5JR59 whole entry): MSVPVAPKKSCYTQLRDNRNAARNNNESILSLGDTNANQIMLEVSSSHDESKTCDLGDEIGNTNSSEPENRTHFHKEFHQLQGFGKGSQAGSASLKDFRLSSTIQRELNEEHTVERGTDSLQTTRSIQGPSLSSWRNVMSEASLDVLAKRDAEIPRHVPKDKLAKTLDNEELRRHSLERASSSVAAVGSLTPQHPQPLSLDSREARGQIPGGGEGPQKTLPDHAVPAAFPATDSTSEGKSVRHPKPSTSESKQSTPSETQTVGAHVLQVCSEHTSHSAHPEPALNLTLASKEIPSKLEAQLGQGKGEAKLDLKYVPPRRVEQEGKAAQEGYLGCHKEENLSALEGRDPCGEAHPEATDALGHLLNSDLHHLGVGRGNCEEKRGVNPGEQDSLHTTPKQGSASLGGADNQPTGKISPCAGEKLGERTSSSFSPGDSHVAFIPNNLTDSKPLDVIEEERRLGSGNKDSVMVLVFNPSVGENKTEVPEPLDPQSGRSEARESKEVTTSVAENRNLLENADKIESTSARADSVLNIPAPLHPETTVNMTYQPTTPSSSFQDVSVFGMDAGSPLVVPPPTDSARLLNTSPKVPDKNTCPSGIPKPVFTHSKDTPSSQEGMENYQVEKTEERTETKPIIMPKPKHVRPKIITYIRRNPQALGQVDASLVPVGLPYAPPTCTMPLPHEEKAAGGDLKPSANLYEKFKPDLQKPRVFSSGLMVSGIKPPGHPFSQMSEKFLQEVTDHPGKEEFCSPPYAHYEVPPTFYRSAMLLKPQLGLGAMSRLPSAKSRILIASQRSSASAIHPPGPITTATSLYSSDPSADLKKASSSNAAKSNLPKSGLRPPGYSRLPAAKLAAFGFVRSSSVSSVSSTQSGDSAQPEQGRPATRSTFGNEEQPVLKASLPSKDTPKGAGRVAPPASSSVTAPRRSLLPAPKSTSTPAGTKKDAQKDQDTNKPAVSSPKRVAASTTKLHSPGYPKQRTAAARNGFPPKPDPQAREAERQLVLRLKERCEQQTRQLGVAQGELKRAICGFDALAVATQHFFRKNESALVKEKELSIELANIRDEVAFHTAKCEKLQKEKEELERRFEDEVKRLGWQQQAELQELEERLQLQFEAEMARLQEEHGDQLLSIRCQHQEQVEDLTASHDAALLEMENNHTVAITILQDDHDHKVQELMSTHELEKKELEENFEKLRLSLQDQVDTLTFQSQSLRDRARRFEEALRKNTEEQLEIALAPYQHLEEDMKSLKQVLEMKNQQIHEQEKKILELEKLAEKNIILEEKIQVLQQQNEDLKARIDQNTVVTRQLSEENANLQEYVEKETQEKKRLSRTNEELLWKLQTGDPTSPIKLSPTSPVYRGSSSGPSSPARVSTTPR

Variant	effect of a mutation on the interaction
V687I	with no effect

Variants of: B3
Settings: with tri27_human TRIM27, P14373

Variant	effect of a mutation on the interaction
MMDLRNTPAKSLDKFIEDYLLPDTCFRMQINHAIDIICGFLKERCFRGSSYPVCVSKVVKGGSSGKGTTLRGRSDADLVVFLSPLTTFQDQLNRRGEFIQEIRRQLEACQRERAFSVKFEVQAPRWGNPRALSFVLSSLQLGEGVEFDVLPAFDALGQLTGGYKPNPQIYVKLIEECTDLQKEGEFSTCFTELQRDFLKQRPTKLKSLIRLVKHWYQNCKKKLGKLPPQYALELLTVYAWERGSMKTHFNTAQGFRTVLELVINYQQLCIYWTKYYDFKNPIIEKYLRRQLTKPRPVILDPADPTGNLGGGDPKGWRQLAQEAEAWPNYPCFKNWDGSPVSSWILLAESNSADDETDDPRRYQKYGYIGTHEYPHFSHRPSTLQAASTPQAEEDWTCTIL [L327P]	disrupting interaction strength

Variants of: B4
Settings: with cdk4_human CDK4, P11802

Variant	effect of a mutation on the interaction
MELLCCEGTRHAPRAGPDPRLLGDQRVLQSLLRLEERYVPRASYFQCVQREIKPHMRKMLAYWMLEVCEEQRCEEEVFPLAMNYLDRYLSCVPTRKAQLQLLGAVCMLLASKLRETTPLTIEKLCIYTDHAVSSRQLRDWEVLVLGKLKWDLAAVIAHDFLAFILHRLSLPRDRQALVKKHAQTFLALCATDYTFAMYPPSMIATGSIGAAVQGLGACSMSGDELTELLAGITGTEVDCLRACQEQIEAALRESLREASQTSSSPAPKAPRGSSSQGPSQTSTPTDVTAIHL [P134S]	with no effect

Variants of: B4
Settings: with cdk6_human CDK6, Q00534
cdk6_human CDK6, Q00534, sequence (Q00534 whole entry): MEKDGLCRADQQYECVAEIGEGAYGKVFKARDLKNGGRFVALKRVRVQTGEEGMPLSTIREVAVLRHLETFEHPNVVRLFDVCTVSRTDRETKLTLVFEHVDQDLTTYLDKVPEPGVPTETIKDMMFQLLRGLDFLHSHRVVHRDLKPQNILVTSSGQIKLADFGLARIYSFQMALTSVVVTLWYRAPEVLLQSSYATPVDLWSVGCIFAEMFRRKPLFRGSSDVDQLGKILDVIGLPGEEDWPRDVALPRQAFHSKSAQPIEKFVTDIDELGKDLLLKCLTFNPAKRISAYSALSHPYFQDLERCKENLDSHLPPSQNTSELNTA

Variant	effect of a mutation on the interaction
MELLCCEGTRHAPRAGPDPRLLGDQRVLQSLLRLEERYVPRASYFQCVQREIKPHMRKMLAYWMLEVCEEQRCEEEVFPLAMNYLDRYLSCVPTRKAQLQLLGAVCMLLASKLRETTPLTIEKLCIYTDHAVSSRQLRDWEVLVLGKLKWDLAAVIAHDFLAFILHRLSLPRDRQALVKKHAQTFLALCATDYTFAMYPPSMIATGSIGAAVQGLGACSMSGDELTELLAGITGTEVDCLRACQEQIEAALRESLREASQTSSSPAPKAPRGSSSQGPSQTSTPTDVTAIHL [P134S]	with no effect
